Experimental data published in publication PMC9104846.

Key:
[1] = biological target: Trastuzumab (anti-Her2/neu), full-length IgG; assay: cross-linking
[2] = biological target: Cetuximab (anti-EGFR), full-length IgG; assay: cross-linking

Substance	percent of IgG labeled with a single SpyCatcher/SpyTag [1]	percent of IgG labeled with a single SpyCatcher/SpyTag [2]	maximum percentage of IgG conjugated to a single pAbBD-SC/ST [1]	maximum percentage of IgG conjugated to a single pAbBD-SC/ST [2]
pAbBD-(GGS)7-SC-(GGS)4-pAbBD (designed binder)	> 70%	> 70%	–	–
pAbBD-(GGS)7-SC-(GGS)7-pAbBD (designed binder)	> 70%	> 70%	–	–
pAbBD-(GGS)7-ST-(GGS)4-pAbBD (designed binder)	> 70%	> 70%	–	–
pAbBD-(GGS)7-ST-(GGS)7-pAbBD (designed binder)	> 70%	> 70%	–	–
photoreactive antibody-binding domain fused to SpyCatcher (designed binder)	–	–	40%	–
photoreactive antibody-binding domain fused to SpyTag (designed binder)	–	–	–	40%
